Test results as given in patent US9340769B2 (priority 2008, dated 2016).

What was measured:
stratum corneum barrier = type: in vivo, ICR mice
P. acnes [1] = test: Effect of desipramine on P. acnes-induced inflammation in vivo (ear thickness); parameters: species or system ICR mice; conditions: 20 mg/kg i.p. 30 min before challenge; 24 hr
Procedure: (A) Amount of soluble ASMase in mouse ear increased 24 hr after bacteria challenge. Ears of ICR mice were intradermally injected with of P. acnes in PBS (1×10^7 CFU/20 μl; left ear) or PBS (20 μl; right ear), and excised after 24 hr. Ear tissue was obtained with a 8 mm biopsy and homogenized in PBS. The supernatant (1 ug of total protein) was subjected to Western blotting. ASMase (upper panels) and GAPDH (lower panels) were detected with goat anti-ASMase IgG followed by anti-GAPDH IgG (left panels). Normal goat or mouse IgG was used as a negative control for the detection (right panels). (B) P. acnes challenge into mouse ear attracted CD11b+ macrophages which highly expressed ASMase. Frozen sections of mouse ear obtained 24 after bacteria challenge were stained with biotinylated anti-mouse CD11b IgG, a conventional macrophage marker, and TRITC-streptavidin conjugate, followed by Goat anti-ASMase IgG and anti-goat IgG-TRITC conjugate. The nuclei were stained with DAPI (blue). Bar=200 μm. (C) Transmission electron microscopy (10,000× magnification) was used to visualize colonized P. acnes and ruptured cell membrane in mouse ears injected with P. acnes or PBS. PA, P. acnes; CM, cell membrane; NC, nucleus. Bar=1 μm. (D) Systemic pre-treatment of ICR mice with selective ASMase inhibitor relieved P. acnes-induced inflammation. […]

[2] = system: HaCaT cells co-cultured with P. acnes; test: P. acnes-mediated cell death: neutralization assay / ASMase inhibitor, HaCaT; conditions: desipramine 10 μM, 14 hr; 43.4% with PBS vehicle
sialidase = test: Immunogenicity of sialidase vaccines (Western blot, antigen microarray); conditions: recombinant protein with Freund (in)complete adjuvants; three weeks after immunization
P. acnes [3] = test: P. acnes-induced ear thickness/redness in immunized mice (subcutaneous ear challenge)
human SZ95 sebocytes = test: Susceptibility of sialidase-treated sebocytes to P. acnes (cell death by trypan blue, adherence by CFU); conditions: pre-treatment 10 μg/ml for 2 h; GFP no effect
[4] = system: sialic acids on the surface of human SZ95 sebocytes; test: Sialidase enzyme activity: removal of surface sialic acids from sebocytes (MAA lectin I / streptavidin-FITC flow cytometry); conditions: compared among three cloned P. acnes sialidases

Molecule: CCCCCCCCCCCCCCO[C@@H]1O[C@H](CO)[C@@H](O[C@H]2O[C@H](CO)[C@@H](O)[C@H](O)[C@H]2O)[C@H](O)[C@H]1O [TDM, tetradecyl-β-D-maltoside]
- effect on stratum corneum barrier (stratum corneum barrier; 0.125% in sterile water, 15 min): slightly disrupts
- effect on epicutaneous immunization of E. coli based-tetanus toxin C fragment vaccine (stratum corneum barrier; mouse, in vivo): greatly enhances

Molecule: CNCCCN1c2ccccc2CCc2ccccc21 [desipramine]
- P. acnes-induced ear swelling (P. acnes [1]): significantly relieved
- P. acnes-induced cell death, reduced by (HaCaT) [2]: 21.9%

B1: sialidase: recombinant P. acnes cell wall-anchored sialidase (gi|50843035) 6×NH fusion protein; enzyme and, with Freund adjuvants, vaccine (protein)
chain: MTLTTKLSALAIAGIMAVIGAPMVTQSAMASGRAPAPDAATTQPKLVTGDITSTDQSGTHLFFGKNIVRNAKGAIMKVDRTWPAAVPAPLPDVRADSSTRMLLGPVVDLAVNEHPAGVFYRIPALATASNGDLLASYDLRPGSAADAPNPNSIVQRRSRDNGRTRGPQTVIHAGTLGRRKVGYSDPSYLVDPATGHILNFHVKSYDRGFATSEVGTDPDDRHVLHAEVSTSTDNGHTWTYRDITREITPDPTTRTRFVASGQGIALLHGPHAGGLIAQMTVRNSVGQQAQSIYSDDHGITWHAGNPVGRMMDENKVVELSDGTLMLNSRDAARSGRRKVAYSHDGGLTWGPVKLVDDLIDPTNNAQIIRAYPNARAGSAKARILLFTNARNATERVNGTLSVSCDDGRTWVSHQTYMPGEVGYTTAAVQSDGALGVLWERDGIRYSTIPMGWLNSVCPVAPSGRPTSGEPTSGTSLPLTATPSGSLHGGASSRPTSLPHTGD
modifications: left off: small tags and cut ends
- anti-sialidase antibody in serum (Western blot) (sialidase): strong band
- elevation of ear thickness, reduced by (P. acnes [3]; recombinant sialidase with Freund (in)complete adjuvants vs GFP-immunized, P. acnes 10^7 CFU s.c.): more than 50%
- recovery of ear redness, days after P. acnes challenge (P. acnes [3]; sialidase-immunized, GFP-immunized 7 days): 3 days
- adherence of P. acnes into sebocytes (human SZ95 sebocytes): considerably increased
- enzyme activity in removing the sialic acids from the surface of human SZ95 sebocytes [4]: strongest enzyme activity
